According to the supplement of paper PMC9170038:

System: MS2 coat protein
Test: apparent KD of MS2 coat protein; designed switch direction (-1 OFF switch, 1 ON switch): -1; higher = weaker reporter binding
How it was run: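 The reported apparent KD is a per-design median over clusters, from curve fits of normalised cluster fluorescence. Protein titrations used SNAP-549-labelled MS2 coat protein, doubled from 0.7 or 1.5 nM to 3 µM, in Tris-HCl pH 7.5 buffer with KCl, MgCl2, BSA, DTT, tRNA and Tween-20, with no input, 200 uM small-molecule ligand, or an oligonucleotide input. The RNA switches were transcribed on Illumina chips by stalled E. coli RNA polymerase.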

[1] = Eterna round: R95, input ligand: FMN 200 uM
[2] = Eterna round: R95, input ligand: microRNA oligo, concentration not stated
[3] = Eterna round: R95, input ligand: none
[4] = input ligand: microRNA oligo, concentration not stated

Row | Sequence | apparent KD of MS2 coat protein [1] | apparent KD of MS2 coat protein [2] | apparent KD of MS2 coat protein [3] | apparent KD of MS2 coat protein (input ligand: FMN 200 uM) | apparent KD of MS2 coat protein (input ligand: none) | also measured
1 | GGUACUAACACGAGAGUGUUAGUACUAUAAGCUUGUGUUACAUGAGGAUCACCCAUGUCCUCAUAGGCUCGUCUUAG [Mat - Sensor v3 - Turn-off var 2 - D84] (puzzle: Sensor v3, turn-off variant 2) | 93.7 nM | 34.8 nM | 91.9 nM |  |  | 
2 | GGUACUCAAAGAGUACCAAUACGAACAUGAGGAUCACCCAUGUAGGAUAUGCUACUCAAAGAGUAGCAGAAGGACGUGUGCCUU [Far Half Aptamer v4] (Eterna round: R96, puzzle: Exclusion NG 3) |  |  |  |  |  | apparent KD of MS2 coat protein [4]: 15.6 nM
3 | GGUAGAGUGGUAGGAUAUCCGGCUGUUUCAGUCGGAGAAGGACCACAGUCACUGGGUCCAAAUAUGGGUGACCAUGUAUCUACC [pwkr exNG1 F6.6] (Eterna round: R96, puzzle: Exclusion NG 1) |  |  |  | 984 nM | 371 nM | apparent KD of MS2 coat protein [4]: 337 nM
4 | GGUCAAGAACAGAUCCGCGCUGUCCUUGACCGCUCAUUUACAUGAGGAUCACCCAUGUUUUUUGCUUGUCUUGUUAC [Tixegeis] (puzzle: Sensor v3, turn-off variant 2) | 17.4 nM | 96.7 nM | 16.5 nM |  |  | 
5 | GGUCAAGAGCAGAUCCGCGCUGCCAUUGACCGCUCAUUUACAUGAGGAUCACCCAUGUUUUUUGCUCGUCUUACUAC [Inedsoinin] (puzzle: Sensor v3, turn-off variant 2) | 18.2 nM | 57.9 nM | 20.3 nM |  |  | 
6 | GGUCAGCUAGGAUAUACAUGAGGAUCACCCAUGUACUGACCCAUGCGGGAGCCUGCAUGUAGAAGGAGCAAUAU [Onzatiqula] (Eterna round: R97, puzzle: Exclusion 3) |  |  |  | 37 nM | 55.3 nM | 
7 | GGUCAUCAAGUCAGGAUAUCGUCUGAUCAAUCAGGCGAGAAGGGACAUGAGGAUCACCCAUGUCGACUCAUCAG [Ex4 #7] (Eterna round: R97, puzzle: Brourd's mod of Exclusion 4) |  |  |  | 85.3 nM | 19.4 nM | 
8 | GGUCGGCGAGGAUAUACAUGAGGAUCACCCAUGUGAUAGAGUGCACGAAAACGUGUACGUAGAAGGCGCUGACG [Mat - Exclusion 3 - Mod of JL D96] (puzzle: Exclusion 3) | 29.5 nM | 11 nM | 9.24 nM |  |  | 
9 | GGUCUACAUGAGGAUCACCCAUGUAAGGAUAUCUACAUUGAAGCUUCGGCUUCAAUGUAGAGAAGGUGCAUAAU [E1/11-B1] (Eterna round: R97, puzzle: Exclusion 1) |  |  |  | 37.3 nM | 31.4 nM | 
10 | GGUGAGCUAGGAUAUGCUUUGGGAAAGCAUUCCUUCGAUAAACUUGAGGAUCACCCAAGUAGAAGGAGCUUGCC [salish99_ex2_r4_019] (Eterna round: R97, puzzle: Exclusion 2) |  |  |  | 18.7 nM | 11.9 nM | 
11 | GGUGCGUAUGUGAGGAUAUGCUGGUCCUUGGAUCGGCAGAAGGCACAUGAGGAUCACCCAUGUGGUGUCGUACU [salish99_Bmod_ex4_082] (puzzle: Brourd's mod of Exclusion 4) |  | 173 nM |  |  |  | 
12 | GGUGCGUAUGUGAGGAUAUGCUGGUCCUUGGUUCAGCAGAAGGCACAUGAGGAUCACCCAUGUGGUGUCGUACC [salish99_Bmod_Ex4_025] (puzzle: Brourd's mod of Exclusion 4) |  | 188 nM |  |  |  | 
13 | GGUGCGUAUGUUAGGAUAUGCUGGUCCUUGGAUCGGCAGAAGGUACAUGAGGAUCACCCAUGUGGUGUCGUUCC [salish99_Bmod_ex4_103] (puzzle: Brourd's mod of Exclusion 4) |  | 50.8 nM |  |  |  | 
14 | GGUGCGUUUGUGAGGAUAUGCUGGUCCUUGGAUCAGCAGAAGGCACAUGAGGAUCACCCAUGUGGUGUCGUACC [salish99_Bmod_Ex4_030] (puzzle: Brourd's mod of Exclusion 4) |  | 273 nM |  |  |  | 
15 | GGUGCUGGCGCGUCGGUGUUGGUGCAAUAAGCUUGUGAAACAUGAGGAUCACCCAUGUCCUCAUAAGCUCGUCUUGU [salish99_TOv2_r2_087] (puzzle: Sensor v3, turn-off variant 2) | 14.4 nM | 283 nM | 12.8 nM |  |  | 
16 | GGUGCUGGCGCGUCGGUGUUGGUGCAAUAAGCUUGUGAAACAUGAGGAUCACCCAUGUCCUCAUAGGCUCGUCUUGU [salish99_TOv2_r2_088] (puzzle: Sensor v3, turn-off variant 2) | 16.4 nM | 544 nM | 14.4 nM |  |  | 
17 | GGUGGACAUGAGGAUCACCCAUGUGAGGAUAUCGGCCGGUGCGUGGUGGCUGGCGUCUCGAGAAGGCACAUAGU [Exclusion 1 V68] (puzzle: Exclusion 1) |  | 74.9 nM |  |  |  | 
18 | GGUGGGCUAGGAUAUGCUUUGGGCAAGCAUUCCUUCGAUAAACUUGAGGAUCACCCAAGUAGAAGGAGCUUGCC [salish99_ex2_r4_026] (Eterna round: R97, puzzle: Exclusion 2) |  |  |  | 11.5 nM | 10.6 nM | 
